From patent US7569660

Tests used:
yeast Hsp104 protein = yeast Hsp104 protein (UniProt P31539)
Rnq1 (S. cerevisiae) = Rnq1 (S. cerevisiae) (UniProt P25367)

Chain of yeast Hsp104 protein (P31539 whole entry): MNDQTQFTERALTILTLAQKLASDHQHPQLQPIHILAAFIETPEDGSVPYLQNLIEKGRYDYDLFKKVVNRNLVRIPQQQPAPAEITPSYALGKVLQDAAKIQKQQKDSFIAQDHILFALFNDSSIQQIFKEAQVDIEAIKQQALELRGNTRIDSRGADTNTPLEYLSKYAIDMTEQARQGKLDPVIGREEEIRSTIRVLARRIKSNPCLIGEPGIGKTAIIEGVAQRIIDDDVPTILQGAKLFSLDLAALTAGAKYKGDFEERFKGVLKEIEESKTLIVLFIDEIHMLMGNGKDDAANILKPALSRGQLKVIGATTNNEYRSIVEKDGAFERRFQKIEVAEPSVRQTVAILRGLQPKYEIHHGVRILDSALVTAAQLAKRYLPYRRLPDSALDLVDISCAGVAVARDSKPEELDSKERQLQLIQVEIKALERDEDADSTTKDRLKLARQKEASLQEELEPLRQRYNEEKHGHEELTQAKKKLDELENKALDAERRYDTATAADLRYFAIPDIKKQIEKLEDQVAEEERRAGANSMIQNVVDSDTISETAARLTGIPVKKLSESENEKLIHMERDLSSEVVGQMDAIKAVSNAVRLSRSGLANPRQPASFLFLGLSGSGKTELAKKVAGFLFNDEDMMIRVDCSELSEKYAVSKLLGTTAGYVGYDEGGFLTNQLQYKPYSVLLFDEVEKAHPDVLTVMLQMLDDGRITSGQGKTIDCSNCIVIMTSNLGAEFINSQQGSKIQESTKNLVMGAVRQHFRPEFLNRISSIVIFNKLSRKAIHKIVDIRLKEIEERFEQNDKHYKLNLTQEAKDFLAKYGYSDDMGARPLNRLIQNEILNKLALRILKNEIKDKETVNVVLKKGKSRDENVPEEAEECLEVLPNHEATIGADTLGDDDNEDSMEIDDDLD

Row | Substance | ATPase activity of Hsp104 (released phosphate, Malachite Green) (yeast Hsp104 protein) | lag time of Thioflavin T fluorescence increase, seeded with 2% preformed fibers (Rnq1 (S. cerevisiae)) [h] | lag time of Thioflavin T fluorescence increase, unseeded (Rnq1 (S. cerevisiae)) [h]
1 | aldolase | did not | – | –
2 | Rnq1 (from UniProt P25367 1-405) | – | 4.3 | 6.4
